According to patent US9198909B1, “Materials and methods for inhibiting mamalian S-nitrosoglutathione reductase” (Indiana University Research and Technology Corporation, priority 2007, dated 2015):

Substrate: CCCCCCCCO
Assay: GSNOR substrate kinetics with octanol
Type: biochemical, human
Conditions: other: octanol as GSNOR substrate; pH 10.0
Procedure: GSNOR is an alcohol dehydrogenases and like other members of ADH family, is capable of oxidizing and reducing primary alcohols and aldehydes with the help of a molecule of NAD(H). Octanol was chosen as the substrate in the initial screening assay as it is bulky like GSNO, but has 200-fold higher KM value (1 mM) and a kcat value (200 min-1) that is more than 2 order of magnitude lower than that of GSNO. This allows the initial velocity conditions to prevail for a period up to 10 min (data not shown) and it enables conducting a large number of concurrent assays in a384 well plate format. The pH of the assay was adjusted to pH 10 in order to get significant rate of oxidation of octanol in the absence of compounds. The screening for GSNOR inhibitors was performed in the presence of saturating concentration of NAD^+ and an un-saturating concentration of octanol thereby increase the probability of identifying compounds that bind, only or primarily in the GSNO binding site of GSNOR. This was deemed desirable as there are many dehydrogenases inside the cells and compounds binding in the coenzyme binding site are more likely to be nonspecific inhibitors of GSNOR, than compounds that bind primarily to the form of GSNOR that binds GSNO.

B1: GSNOR (Homo sapiens) (protein)
chain: MANEVIKCKAAVAWEAGKPLSIEEIEVAPPKAHEVRIKIIATAVCHTDAYTLSGADPEGCFPVILGHEGAGIVESVGEGVTKLKAGDTVIPLYIPQCGECKFCLNPKTNLCQKIRVTQGKGLMPDGTSRFTCKGKTILHYMGTSTFSEYTVVADISVAKIDPLAPLDKVCLLGCGISTGYGAAVNTAKLEPGSVCAVFGLGGVGLAVIMGCKVAGASRIIGVDINKDKFARAKEFGATECINPQDFSKPIQEVLIEMTDGGVDYSFECIGNVKVMRAALEACHKGWGVSVVVGVAASGEEIATRPFQLVTGRTWKGTAFGGWKSVESVPKLVSEYMSKKIKVDEFVTHNLSFDEINKAFELMHSGKSIRTVVKI
  Km: 1000 µM
  kcat: 3.33 s⁻¹
